Measured values taken from patent publication US20140112915A1 (Novartis, published 2014).
Numbering of substitutions follows the chain as printed. Like-named read-outs stand apart in the source and are kept apart here.

T1: Recombinant human IL-18 (human, UniProt Q14116 37-193)
T1 sequence: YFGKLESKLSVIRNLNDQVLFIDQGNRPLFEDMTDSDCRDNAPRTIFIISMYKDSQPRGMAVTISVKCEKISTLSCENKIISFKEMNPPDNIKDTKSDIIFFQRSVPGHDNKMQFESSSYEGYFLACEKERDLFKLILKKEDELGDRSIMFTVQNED

T2: Recombinant cynomolgus IL-18 (cynomolgus monkey, UniProt Q14116 37-193 (human entry))
T2 chain: T1 sequence with V11I, S50N, T63A, K79R, F134Y, E141K

T3: Native human IL-18 (human, UniProt Q14116 37-193)
T3 sequence: T1 sequence

B1: MOR10222_E1Q_N30S_M54I (antibody, human IgG1, lambda, L234A L235A, V domains shown)
VH: QVQLVQSGAEVKKPGSSVKVSCKASGGTFSSYAISWVRQAPGQGLEWMGNIIPITGQTYYAQKFQGRVTITADESTSTAYMELSSLRSEDTAVYYCARAAYHPLVFDNWGQGTLVTVSS
VL: QSVLTQPPSASGTPGQRVTISCSGSSSNIGNHYVNWYQQLPGTAPKLLIYRNNHRPSGVPDRFSGSKSGTSASLAISGLQSEDEADYYCQSWDYSGFSTVFGGGTKLTVLG
B2: MOR9464_N30L (antibody, human IgG1, lambda, L234A L235A, V domains shown)
VH: B1 VH with Q1E, S30L, I54M
VL: B1 VL with Q1D, S2I, A10V, T13A, S77T
B3: MOR9464_N30Y (antibody, human IgG1, lambda, L234A L235A, V domains shown)
VH: B1 VH with Q1E, S30Y, I54M
VL: B1 VL with Q1D, S2I, A10V, T13A, S77T
B4: MOR9464_N30I (antibody, human IgG1, lambda, L234A L235A, V domains shown)
VH: B1 VH with Q1E, S30I, I54M
VL: B1 VL with Q1D, S2I, A10V, T13A, S77T
B5: MOR9464_N30G (antibody, human IgG1, lambda, L234A L235A, V domains shown)
VH: B1 VH with Q1E, S30G, I54M
VL: B1 VL with Q1D, S2I, A10V, T13A, S77T
B6: MOR9464_N30V (antibody, human IgG1, lambda, L234A L235A, V domains shown)
VH: B1 VH with Q1E, S30V, I54M
VL: B1 VL with Q1D, S2I, A10V, T13A, S77T
B7: MOR9464_N30R (antibody, human IgG1, lambda, L234A L235A, V domains shown)
VH: B1 VH with Q1E, S30R, I54M
VL: B1 VL with Q1D, S2I, A10V, T13A, S77T
B8: MOR13363 (antibody, human IgG1, kappa, L234A L235A, V domains shown)
VH: QVQLLESGGGLVQPGGSLRLSCAASGFTFSSYAIHWVRQAPGKGLEWVSVISGEGSNTYYADSVKGRFTISRDNSKNTLYLQMNSLRAEDTAVYYCARVMIGYGFDYWGQGTLVTVSS
VL: DIQMTQSPSSLSASVGDRVTITCRASQSIFNYLNWYQQKPGKAPKLLIYDSSTLQSGVPSRFSGSGSGTDFTLTISSLQPEDFATYYCLQYSGFLFTFGQGTKVEIKR
B9: MOR13341 (antibody, human IgG1, kappa, L234A L235A, V domains shown)
VH: QVQLVQSGAEVKKPGSSVKVSCKASGGTFSTFSISWVRQAPGQGLEWMGGIIPIFGTANYAQKFQGRVTITADESTSTAYMELSSLRSEDTAVYYCARGGYGGYYYFDYWGQGTLVTVSS
VL: B8 VL with F30S, Y32R, D50K, S51G, L89Q, Y91H, S92K, G93V, F94W, F96T
B10: MOR13361 (antibody, human IgG1, kappa, L234A L235A, V domains shown)
VH: B8 VH with V50T, S52Q, G53S, E54S, S56E, T58K, Y59F
VL: B8 VL with L89H, F94L
B11: MOR10501 (antibody, human IgG1, lambda, L234A L235A, V domains shown)
VH: EVQLQESGPGLVKPGETLSLTCTVSGGSISTGSYYWNWIRQAPGKGLEWIGEIWHSGPTFYNPSLKSRVTISVDTSKNQFSLKLSSVTAADTAVYYCARTTRYWMSHILAYGMDYWGQGTLVTVSS
VL: DIVLTQPPSVSGAPGQRVTISCSGSSSNIGNHYVSWYQQLPGTAPKLLIYANTKRPSGVPDRFSGSKSGTSASLAITGLQSEDEADYYCSSYDGSQSIVFGGGTKLTVLG
notes: also called MOR010501
B12: MOR10502 (antibody, human IgG1, lambda, L234A L235A, V domains shown)
VH: B11 VH with W54H, H55G, S56H, P58F
VL: B11 VL
notes: also called MOR010502
B13: MOR10497 (antibody, human IgG1, lambda, L234A L235A, V domains shown)
VH: B11 VH with W54Q, H55S, S56P, P58Y
VL: B11 VL
notes: also called MOR010497

Legend:
Recombinant human IL-18 [1] = target: T1, Recombinant human IL-18; assay: cell-based or functional assay
[2] = target: T2, Recombinant cynomolgus IL-18; assay: cell-based or functional assay
Native human IL-18 [3] = target: T3, Native human IL-18; assay: cell-based or functional assay
Recombinant human IL-18 [4] = target: T1, Recombinant human IL-18; assay: cell-based or functional assay; remark: listed apart in the source
Native human IL-18 [5] = target: T3, Native human IL-18; assay: cell-based or functional assay; remark: listed apart in the source
Recombinant human IL-18 [6] = target: T1, Recombinant human IL-18; assay: cell-based or functional assay; remark: listed apart in the source
Native human IL-18 [7] = target: T3, Native human IL-18; assay: cell-based or functional assay; remark: listed apart in the source
Recombinant human IL-18 [8] = target: T1, Recombinant human IL-18; assay: solution equilibrium titration (SET), ECL detection; human IL-18; unbracketed value, column Hu IL-18
Description: (§1) Goat-anti-human (Fab)₂ fragment specific antibodies (Dianova) were labeled with MSD SULFO-TAG™ NHS-Ester (Meso Scale Discovery, Gaithersburg, Md., USA) according to the manufacturer's instructions. Experiments were carried out in polypropylene microtiter plates and phosphate-based assay buffer. Unlabeled human IL-18 was serially diluted, starting with a concentration at least 10 times higher than the expected KD. Wells without antigen were used to determine Bₘₐₓ values; wells with assay buffer were used to determine background. After addition of a constant amount of antibodies or fragment thereof (e.g. 10 pM final concentration in 60 μl final volume), the mixture was incubated over night at RT.
(§2) Streptavidin MSD plates were blocked with BSA-containing phosphate buffer over night. After blocking of the plate, biotinylated human IL-18 was added and incubated for 1 h at RT. Subsequently the equilibrated samples were transferred to those plates and incubated for a short time at RT. After washing, MSD SULFO-TAG labeled detection antibody (goat anti-human (Fab)₂) was added to the MSD plate and incubated for a short time at RT.
(§3) Where IL-18 from cynomolgus monkey (cm IL-18) was also tested, the resulting KD are indicated in brackets.

[9] = target: T2, Recombinant cynomolgus IL-18; assay: solution equilibrium titration (SET), ECL detection; value in brackets = cynomolgus IL-18; bracketed value
Description: as §1, §2, §3

Recombinant human IL-18 [10] = target: T1, Recombinant human IL-18; assay: solution equilibrium titration (SET), ECL detection
Description: as §1, §2, §3

| Binder | IC50, inhibition of IFN-γ release, KG-1 cells, Hu IL-18 (1 nM) (Recombinant human IL-18 [1]) | IC50, inhibition of IFN-γ release, KG-1 cells, Cyno IL-18 [2] | IC50, inhibition of IFN-γ release, PBMC, Native IL-18 (LPS/IL-12) (Native human IL-18 [3]) | IC50, inhibition of IFN-γ release, KG-1 cells, Hu IL-18 (1 nM) (Recombinant human IL-18 [4]) | IC50, inhibition of IFN-γ release, PBMC, Native IL-18 (LPS/IL-12) (Native human IL-18 [5]) | IC50, inhibition of IFN-γ release, human whole blood, recombinant human IL-18 (7 nM) (Recombinant human IL-18 [6]) | IC50, inhibition of IFN-γ release, human whole blood, LPS/IL-12 (native IL-18) (Native human IL-18 [7]) | Kd (Recombinant human IL-18 [8]) | Kd [9] | IC50, inhibition of IFN-γ release, KG-1 cells, Hu IL-18 (0.5 nM) (Recombinant human IL-18 [1]) | IC50, inhibition of IFN-γ release, KG-1 cells, Cyno IL-18 (0.2 nM) [2] | IC50, inhibition of IFN-γ release, PBMC, Hu IL-18 (recombinant) (Recombinant human IL-18 [1]) | Kd (Recombinant human IL-18 [10]) |
| --- | --- | --- | --- | --- | --- | --- | --- | --- | --- | --- | --- | --- | --- |
| B1 | 4.21 nM | 8.12 nM | 0.05 nM | 4.2 nM | 0.05 nM | 47.3 nM | 9.3 nM | 3 pM | 0.03 nM |  |  |  |  |
| B2 |  |  |  | 0.23 nM | 0.05 nM | 9.85 nM | 15.5 nM |  |  |  |  |  |  |
| B3 |  |  |  | 0.23 nM | 0.03 nM | 12.4 nM | 17.9 nM |  |  |  |  |  |  |
| B4 |  |  |  | 0.32 nM | 0.11 nM | 11.4 nM | 13.2 nM |  |  |  |  |  |  |
| B5 |  |  |  | 0.54 nM | 0.11 nM | 25.1 nM | 15.1 nM |  |  |  |  |  |  |
| B6 |  |  |  | 0.29 nM | 0.11 nM | 12.7 nM | 19.6 nM |  |  |  |  |  |  |
| B7 |  |  |  | 0.47 nM | 0.04 nM | 10.1 nM | 11 nM |  |  |  |  |  |  |
| B8 |  |  | 0.18 nM |  |  | 29.4 nM | 91.7 nM | 10 pM | 0.01 nM | 0.49 nM | 0.28 nM |  |  |
| B9 |  |  | 0.8 nM |  |  | 5.6 nM | 19.6 nM | 3 pM | 0.03 nM | 0.13 nM | 2.8 nM |  |  |
| B10 |  |  | 0.5 nM |  |  | 15.7 nM | 39.4 nM | 7 pM | 0.006 nM | 0.41 nM | 0.13 nM |  |  |
| B11 | 0.3 nM | 0.2 nM | 1.3 nM |  |  | 20.3 nM | 101 nM |  |  |  |  | 6.3 nM | 1 pM |
| B12 | 0.4 nM | 0.2 nM | 2.3 nM |  |  | 17.9 nM | 110 nM |  |  |  |  | 6.3 nM | 4 pM |
| B13 | 0.3 nM | 0.3 nM | 1.8 nM |  |  | 16.1 nM | 108 nM |  |  |  |  | 5.8 nM | 2 pM |
